Data reported in article doi:10.1101/2020.09.28.310474 (bioRxiv, 2020).

Target: the molecule itself
Test: crystal structure

B1: human CaMKIIα hub domain containing six mutations (6x Hub) (domain or fragment, UniProt Q9UQM7 345-475, looked up)
chain: VRKQEIIKVNQQLIEAISNGDFESYTKMCDPGMTAFEPEALGNLVEGLDFHRFYFENLWSRNSKPVHNTMLNPHIHLMGDESACIAYIRITQYLDAGGIPRTAQSEETRVWHRRDGKWQHVHMHRSGAPSV
stoichiometry N: 14
